Laboratory results from PMC5662131.

What was measured:
[1] = biological target: T1, (His)6-KcsA, K+ channel from Streptomyces lividans (Streptomyces lividans), P0A334; assay: SEC; details: remark: other sources report otherwise
T1 chain: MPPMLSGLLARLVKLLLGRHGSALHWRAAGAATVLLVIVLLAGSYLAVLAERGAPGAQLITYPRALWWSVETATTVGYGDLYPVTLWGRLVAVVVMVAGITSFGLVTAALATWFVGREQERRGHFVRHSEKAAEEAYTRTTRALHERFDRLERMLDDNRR

[2] = biological target: T1, (His)6-KcsA, K+ channel from …; assay: SDS-PAGE with Western blot; details: remark: other sources report otherwise

B1: (His)6-KcsA, K+ channel from Streptomyces lividans, P0A334 1-160 (natural protein)
chain: MPPMLSGLLARLVKLLLGRHGSALHWRAAGAATVLLVIVLLAGSYLAVLAERGAPGAQLITYPRALWWSVETATTVGYGDLYPVTLWGRLVAVVVMVAGITSFGLVTAALATWFVGREQERRGHFVRHSEKAAEEAYTRTTRALHERFDRLERMLDDNRR
Work on B1 yielded a stoichiometry N [1] of 4 and a stoichiometry N [2] of 4.
